B1: Ras GTPase-activating protein 1, residues 281 to 341; numbered along this chain, P20936 (parent)
chain: RRRVRAILPYTKVPDTDEISFLKGDMFIVHNELEDGWMWVTNLRTDEQGLIVEDLVEEVGR

± gives the uncertainty stated by the source.

Variants of B1 are the subject of this data set. As to the kind of experiment: abundance fitness (aPCA) (normalised: wild type 0, dead -1); higher = more abundant; growth selection in yeast, the domain comes from the species named. As to conditions: Homo sapiens.
In the case of RRRVRAILPYTKVPDTDEISFLKGDMFIVHNELEDGWMWVTNLNTDEQGLIVEDLVEEVGR, the abundance fitness was -0.224 ± 0.03.
Under RRRVRAILPYTKVPDTDEISFLKGDMFIVHNELEDGWMWVTNLFTDEQGLIVEDLVEEVGR stands -0.637 ± 0.033; under RRRVRAILPYTKVPDTDEISFLKGDMFIVHNELEDGWMWVTNLLTDEQGLIVEDLVEEVGR, -0.905 ± 0.052.
Turning to RRRVRAILPYTKVPDTDEISFLKGDMFIVHNELEDGWMWVTNLCTDEQGLIVEDLVEEVGR, the abundance fitness was -0.47 ± 0.036.
The figure for RRRVRAILPYTKVPDTDEISFLKGDMFIVHNELEDGWMWVTNLKTDEQGLIVEDLVEEVGR is -0.648 ± 0.076.
RRRVRAILPYTKVPDTDEISFLKGDMFIVHNELEDGWMWVTNLETDEQGLIVEDLVEEVGR: the abundance fitness was -0.442 ± 0.091.
Take RRRVRAILPYTKVPDTDEISFLKGDMFIVHNELEDGWMWVTNLHTDEQGLIVEDLVEEVGR: the abundance fitness was -0.542 ± 0.039.
Under RRRVRAILPYTKVPDTDEISFLKGDMFIVHNELEDGWMWVTNLMTDEQGLIVEDLVEEVGR stands -0.287 ± 0.054; under RRRVRAILPYTKVPDTDEISFLKGDMFIVHNELEDGWMWVTNLVTDEQGLIVEDLVEEVGR, -0.708 ± 0.047.
With RRRVRAILPYTKVPDTDEISFLKGDMFIVHNELEDGWMWVTNLITDEQGLIVEDLVEEVGR, the abundance fitness was -0.774 ± 0.041.
For the variant RRRVRAILPYTKVPDTDEISFLKGDMFIVHNELEDGWMWVTNLPTDEQGLIVEDLVEEVGR, the abundance fitness was -0.9 ± 0.1.
Under RRRVRAILPYTKVPDTDEISFLKGDMFIVHNELEDGWMWVTNLSTDEQGLIVEDLVEEVGR stands -0.207 ± 0.026; under RRRVRAILPYTKVPDTDEISFLKGDMFIVHNELEDGWMWVTNLYTDEQGLIVEDLVEEVGR, -0.523 ± 0.035; under RRRVRAILPYTKVPDTDEISFLKGDMFIVHNELEDGWMWVTNLQTDEQGLIVEDLVEEVGR, -0.314 ± 0.12.
The figure for RRRVRAILPYTKVPDTDEISFLKGDMFIVHNELEDGWMWVTNLDTDEQGLIVEDLVEEVGR is -0.885 ± 0.087; for RRRVRAILPYTKVPDTDEISFLKGDMFIVHNELEDGWMWVTNLTTDEQGLIVEDLVEEVGR it is -0.319 ± 0.036; for RRRVRAILPYTKVPDTDEISFLKGDMFIVHNELEDGWMWVTNLRYDEQGLIVEDLVEEVGR it is -0.841 ± 0.045.
Under RRRVRAILPYTKVPDTDEISFLKGDMFIVHNELEDGWMWVTNLRKDEQGLIVEDLVEEVGR stands -1.05 ± 0.13; under RRRVRAILPYTKVPDTDEISFLKGDMFIVHNELEDGWMWVTNLRWDEQGLIVEDLVEEVGR, -0.876 ± 0.1.
Take RRRVRAILPYTKVPDTDEISFLKGDMFIVHNELEDGWMWVTNLRADEQGLIVEDLVEEVGR: the abundance fitness is -0.735 ± 0.049.
On to RRRVRAILPYTKVPDTDEISFLKGDMFIVHNELEDGWMWVTNLRHDEQGLIVEDLVEEVGR, for which the abundance fitness was -0.769 ± 0.046.
As for RRRVRAILPYTKVPDTDEISFLKGDMFIVHNELEDGWMWVTNLRDDEQGLIVEDLVEEVGR, the abundance fitness is -0.762 ± 0.041.
The figure for RRRVRAILPYTKVPDTDEISFLKGDMFIVHNELEDGWMWVTNLRPDEQGLIVEDLVEEVGR is -0.988 ± 0.084; for RRRVRAILPYTKVPDTDEISFLKGDMFIVHNELEDGWMWVTNLREDEQGLIVEDLVEEVGR it is -0.997 ± 0.12.
The figure for RRRVRAILPYTKVPDTDEISFLKGDMFIVHNELEDGWMWVTNLRCDEQGLIVEDLVEEVGR is -0.771 ± 0.038; for RRRVRAILPYTKVPDTDEISFLKGDMFIVHNELEDGWMWVTNLRGDEQGLIVEDLVEEVGR it is -0.851 ± 0.043; for RRRVRAILPYTKVPDTDEISFLKGDMFIVHNELEDGWMWVTNLRVDEQGLIVEDLVEEVGR it is -0.807 ± 0.043.
For the variant RRRVRAILPYTKVPDTDEISFLKGDMFIVHNELEDGWMWVTNLRNDEQGLIVEDLVEEVGR, the abundance fitness was -0.005 ± 0.027.
Under RRRVRAILPYTKVPDTDEISFLKGDMFIVHNELEDGWMWVTNLRMDEQGLIVEDLVEEVGR stands -0.974 ± 0.11; under RRRVRAILPYTKVPDTDEISFLKGDMFIVHNELEDGWMWVTNLRFDEQGLIVEDLVEEVGR, -0.796 ± 0.042.
For RRRVRAILPYTKVPDTDEISFLKGDMFIVHNELEDGWMWVTNLRQDEQGLIVEDLVEEVGR, the abundance fitness was -0.962 ± 0.25.
As to RRRVRAILPYTKVPDTDEISFLKGDMFIVHNELEDGWMWVTNLRLDEQGLIVEDLVEEVGR, the abundance fitness is -0.836 ± 0.042.
The figure for RRRVRAILPYTKVPDTDEISFLKGDMFIVHNELEDGWMWVTNLRSDEQGLIVEDLVEEVGR is -0.098 ± 0.024; for RRRVRAILPYTKVPDTDEISFLKGDMFIVHNELEDGWMWVTNLRTDFQGLIVEDLVEEVGR it is -0.841 ± 0.04; for RRRVRAILPYTKVPDTDEISFLKGDMFIVHNELEDGWMWVTNLRTDCQGLIVEDLVEEVGR it is -0.192 ± 0.029.
Under RRRVRAILPYTKVPDTDEISFLKGDMFIVHNELEDGWMWVTNLRTDNQGLIVEDLVEEVGR stands -0.428 ± 0.032; under RRRVRAILPYTKVPDTDEISFLKGDMFIVHNELEDGWMWVTNLRTDSQGLIVEDLVEEVGR, -0.348 ± 0.026.
Regarding RRRVRAILPYTKVPDTDEISFLKGDMFIVHNELEDGWMWVTNLRTDDQGLIVEDLVEEVGR, the abundance fitness is -0.104 ± 0.028.
The figure for RRRVRAILPYTKVPDTDEISFLKGDMFIVHNELEDGWMWVTNLRTDWQGLIVEDLVEEVGR is -0.94 ± 0.11.
The figure for RRRVRAILPYTKVPDTDEISFLKGDMFIVHNELEDGWMWVTNLRTDQQGLIVEDLVEEVGR is -0.135 ± 0.075.
Under RRRVRAILPYTKVPDTDEISFLKGDMFIVHNELEDGWMWVTNLRTDYQGLIVEDLVEEVGR stands -0.77 ± 0.038; under RRRVRAILPYTKVPDTDEISFLKGDMFIVHNELEDGWMWVTNLRTDHQGLIVEDLVEEVGR, -0.253 ± 0.032; under RRRVRAILPYTKVPDTDEISFLKGDMFIVHNELEDGWMWVTNLRTDTQGLIVEDLVEEVGR, -0.263 ± 0.031.

The record behind these values is the Human Domainome abundance scans (Beltran et al. 2025).
